Experimental data: paper PMC4854285
pKd: −log10 of the molar value.

Molecular target: biotinylated peptide composed of residues 656-683 of the gp41 MPER (RRR-…-RRK-biotin) (HIV-1)
Assay: SPR

10E8 antigen-binding fragment (Fab)
pKd: 7.77
